Experimental data as given in US20240132578A1.

Columns and labels:
Assay in all cases: cell-based or functional assay
[1] = target: HIV-1 Env of isolate 6535.3 (Acute), clade B (HIV-1)
[2] = target: HIV-1 Env of isolate 92RW020 (clade A pseudovirus) (HIV-1)
[3] = target: HIV-1 Env of isolate 92UG046 (clade D pseudovirus) (HIV-1)
[4] = target: HIV-1 Env of isolate 93UG077 (clade A pseudovirus) (HIV-1)
[5] = target: HIV-1 Env of isolate MGRM-A-002 (clade A pseudovirus) (HIV-1)
[6] = target: HIV-1 Env of isolate MGRM-A-005 (clade A pseudovirus) (HIV-1)
[7] = target: HIV-1 Env of isolate MGRM-A-006 (clade A pseudovirus) (HIV-1)
[8] = target: HIV-1 Env of isolate MGRM-Chronic-B-008, clade B (HIV-1)
[9] = target: HIV-1 Env of isolate MGRM-D-003 (clade D pseudovirus) (HIV-1)
[10] = target: HIV-1 Env of isolate MGRM-D-019 (clade D pseudovirus) (HIV-1)
[11] = target: HIV-1 Env of pseudovirus MGRM-F1-018 (clade F) (HIV-1)
[12] = target: HIV-1 Env of pseudovirus MGRM-F1-023 (clade F) (HIV-1)
[13] = target: HIV-1 Env of pseudovirus MGRM-G-017 (HIV-1)
[14] = target: HIV-1 MGRM-AG-003 Env (pseudovirus) (HIV-1)
[15] = target: HIV-1 envelope glycoprotein (Env) of isolate 93IN905 (HIV-1)
[16] = target: HIV-1 envelope glycoprotein (Env) of isolate LAVI_C22 (HIV-1)
[17] = target: HIV-1 envelope glycoprotein (Env) of isolate MGRM-C-020 (HIV-1)
[18] = target: HIV-1 92TH021 envelope protein (Env) on pseudovirus (HIV-1)
[19] = target: HIV-1 Env of isolate 92TH021 (pseudovirus) (HIV-1)
[20] = target: HIV-1 Env of isolate MGRM-AG-002 (pseudovirus) (HIV-1)
[21] = target: HIV-1 Env of isolate MGRM-G-027 (subtype G) (HIV-1)
[22] = target: HIV-1 MGRM-C-028 Env (HIV-1)
[23] = target: HIV-1 envelope glycoprotein (Env) of isolate 93IN905, on pseudovirus (HIV-1)
[24] = target: HIV-1 envelope glycoprotein (Env) of isolate MG RM-A-001, subtype A (HIV-1)
[25] = target: HIV-1 envelope glycoprotein (Env) of isolate MG RM-A-006, subtype A (HIV-1)
[26] = target: HIV-1 envelope glycoprotein (Env) of isolate SC422661.8, on pseudovirus (HIV-1)
[27] = target: HIV-1 JR-CSF Env D417A (HIV-1 (isolate JR-CSF)) (UniProt P20871)
[28] = target: HIV-1 JR-CSF Env Q422A (HIV-1 (isolate JR-CSF)) (UniProt P20871)
[29] = target: HIV-1 Env of isolate 92UG001 (pseudovirus) (HIV-1)
[30] = target: HIV-1 Env of isolate 92UG024 (pseudovirus) (HIV-1)
[31] = target: HIV-1 Env of isolate MGRM-A-009 (subtype A) (HIV-1)
[32] = target: HIV-1 Env of isolate MGRM-AG-009 (subtype AG) (HIV-1)
[33] = target: HIV-1 Env of isolate MGRM-D-002 (pseudovirus) (HIV-1)
[34] = target: HIV-1 Env of isolate MGRM-D-014 (pseudovirus) (HIV-1)
[35] = target: HIV-1 Env of pseudovirus isolate MGRM-C-010 (clade C) (HIV-1)
[36] = target: HIV-1 Env of isolate MGRM-G-025 (subtype G) (HIV-1)

Chain of 1443_C16 (PG16) (TCN-116) (antibody) (VH): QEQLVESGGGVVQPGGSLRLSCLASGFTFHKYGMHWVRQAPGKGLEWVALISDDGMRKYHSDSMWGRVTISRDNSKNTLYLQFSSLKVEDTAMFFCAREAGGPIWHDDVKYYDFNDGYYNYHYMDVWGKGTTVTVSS
Chain of 1443_C16 (PG16) (TCN-116) (antibody) (VL): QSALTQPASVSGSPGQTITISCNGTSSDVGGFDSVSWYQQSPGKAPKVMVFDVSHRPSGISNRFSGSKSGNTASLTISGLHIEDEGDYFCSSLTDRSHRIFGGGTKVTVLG
Chain of 5345_I01 (PGT-137) (antibody) (VH): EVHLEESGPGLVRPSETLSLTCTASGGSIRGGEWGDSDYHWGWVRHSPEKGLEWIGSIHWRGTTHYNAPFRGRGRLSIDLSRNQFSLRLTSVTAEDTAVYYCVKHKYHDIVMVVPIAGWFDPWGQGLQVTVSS
Chain of 5345_I01 (PGT-137) (antibody) (VL): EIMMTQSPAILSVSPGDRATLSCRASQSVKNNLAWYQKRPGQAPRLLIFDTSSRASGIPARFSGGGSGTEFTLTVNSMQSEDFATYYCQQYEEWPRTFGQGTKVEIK

Substance	IC50 (µg/ml), pseudovirus neutralization [1] [µg/mL]	IC50 (µg/ml), pseudovirus neutralization [2] [µg/mL]	IC50, pseudovirus neutralization [3] [µg/mL]	IC50 (µg/ml), pseudovirus neutralization [4] [µg/mL]	IC50 (µg/ml), pseudovirus neutralization [5] [µg/mL]	IC50 (µg/ml), pseudovirus neutralization [6] [µg/mL]	IC50 (µg/ml), pseudovirus neutralization [7] [µg/mL]	IC50 (µg/ml), pseudovirus neutralization [8] [µg/mL]	IC50, pseudovirus neutralization [9] [µg/mL]	IC50, pseudovirus neutralization [10] [µg/mL]	IC50 [11] [µg/mL]	IC50 [12] [µg/mL]	IC50 (µg/ml), pseudovirus neutralization [13] [µg/mL]	IC50 (µg/ml), pseudovirus neutralization [14] [µg/mL]	IC50 (µg/ml), pseudovirus neutralization [15] [µg/mL]	IC50 (µg/ml), pseudovirus neutralization [16] [µg/mL]	IC50 (µg/ml), pseudovirus neutralization [17] [µg/mL]	IC50 (ug/mL), pseudovirus neutralization [18] [µg/mL]	IC50 (µg/mL), pseudovirus neutralization [20] [µg/mL]	IC50, pseudovirus neutralization [23] [µg/mL]	also measured
2F5 (antibody)	2.76	3.36	> 50	3.3	> 50	5.7	15.7	> 50	> 50	0.14	3.91	1.78	0.6	0.14	> 50	> 50	> 50	–	–	–	–
2G12 (antibody)	3.85	0.48	> 50	> 50	> 50	> 50	13.8	0.55	> 50	> 50	> 50	9.23	> 50	> 50	> 50	> 50	18.6	–	–	–	–
4E10 (antibody)	1.23	4.54	12.2	10.6	6.45	4.09	9.87	16.7	2.49	0.04	3.6	0.44	1.14	0.64	1.26	2.02	2.8	–	–	–	–
1443_C16 (PG16) (TCN-116) (antibody)	36.9	0.28	1.42	> 50	0.004	0.09	> 50	0.73	0.01	0.01	0.01	> 50	0.02	> 50	0.25	0.02	> 50	–	–	–	–
1495_C14 (PGC14) (antibody)	35	46	> 50	> 50	> 50	> 50	> 50	> 50	> 50	> 50	> 50	> 50	> 50	> 50	19	25	> 50	–	–	–	–
1496_C09 (PG9) (TCN-109) (antibody)	0.22	0.08	0.64	–	–	–	–	6.66	–	0.03	0.03	–	0.03	9.71	0.03	–	–	0.103	0.076	–	IC50 (µg/mL), pseudovirus neutralization [19]: 0.059 µg/mL; IC50 (µg/mL), pseudovirus neutralization [21]: 0.007 µg/mL; IC50, pseudovirus neutralization [22]: 0.121 µg/mL
4838_L06 (PGT-121) (antibody)	–	–	–	–	–	–	–	–	–	–	–	–	–	–	–	–	–	> 10	–	0.005	IC50, pseudovirus neutralization [24]: > 50 µg/mL; IC50, pseudovirus neutralization [25]: 0.396 µg/mL; IC50, pseudovirus neutralization [26]: 0.098 µg/mL
4858_P08 (PGT-123) (antibody)	–	–	–	–	–	–	–	–	–	–	–	–	–	–	–	–	–	> 10	> 50	0.004	Fold IC50 increase relative to wild-type (pseudovirus neutralization) [27]: 0.7 fold; Fold IC50 increase relative to wild-type (pseudovirus neutralization) [28]: 0.8 fold; IC50, pseudovirus neutralization [22]: 0.443 µg/mL; IC50, pseudovirus neutralization [24]: > 50 µg/mL; IC50, pseudovirus neutralization [25]: > 50 µg/mL; IC50, pseudovirus neutralization [26]: 0.039 µg/mL
4877_D15 (PGT-122) (antibody)	–	–	–	–	–	–	–	–	–	–	–	–	–	–	–	–	–	> 10	> 50	0.013	IC50, pseudovirus neutralization [22]: 2.06 µg/mL; IC50, pseudovirus neutralization [24]: > 50 µg/mL; IC50, pseudovirus neutralization [25]: > 50 µg/mL; IC50, pseudovirus neutralization [26]: 0.103 µg/mL
5123_A06 (PGT-125) (antibody)	–	–	–	–	–	–	–	–	–	–	–	–	–	–	–	–	–	0.0066	> 50	0.009	Fold IC50 increase relative to wild-type (pseudovirus neutralization) [27]: 0.5 fold; Fold IC50 increase relative to wild-type (pseudovirus neutralization) [28]: 1.2 fold; IC50, pseudovirus neutralization [22]: 5.78 µg/mL; IC50, pseudovirus neutralization [24]: 12.4 µg/mL; IC50, pseudovirus neutralization [25]: > 50 µg/mL; IC50, pseudovirus neutralization [26]: 30.1 µg/mL
5141_B17 (PGT-126) (antibody)	–	–	–	–	–	–	–	–	–	–	–	–	–	–	–	–	–	0.115	> 50	0.015	Fold IC50 increase relative to wild-type (pseudovirus neutralization) [27]: 1 fold; Fold IC50 increase relative to wild-type (pseudovirus neutralization) [28]: 1.1 fold; IC50, pseudovirus neutralization [22]: 0.283 µg/mL; Neutralization IC80 [15]: 0.0676 µg/mL; Neutralization IC90 [15]: 0.14 µg/mL; Neutralization IC95 [15]: 0.275 µg/mL; neutralization IC50 [15]: 0.0194 µg/mL; IC50, pseudovirus neutralization [24]: > 50 µg/mL; IC50, pseudovirus neutralization [25]: > 50 µg/mL; IC50, pseudovirus neutralization [26]: 0.119 µg/mL
5145_B14 (PGT-127) (antibody)	–	–	–	–	–	–	–	–	–	–	–	–	–	–	–	–	–	–	> 50	0.024	Fold IC50 increase relative to wild-type (pseudovirus neutralization) [27]: 0.4 fold; Fold IC50 increase relative to wild-type (pseudovirus neutralization) [28]: 0.1 fold; IC50, pseudovirus neutralization [24]: > 50 µg/mL; IC50, pseudovirus neutralization [25]: > 50 µg/mL; IC50, pseudovirus neutralization [26]: 36.7 µg/mL
5345_I01 (PGT-137) (antibody)	–	–	–	–	–	–	–	–	–	–	–	–	–	–	–	–	–	–	–	–	IC50 (µg/mL), pseudovirus neutralization [29]: > 50 µg/mL; IC50 (µg/mL), pseudovirus neutralization [30]: 0.106 µg/mL; IC50, pseudovirus neutralization [31]: > 50 µg/mL; IC50, pseudovirus neutralization [32]: > 50 µg/mL; IC50 (µg/mL), pseudovirus neutralization [33]: > 50 µg/mL; IC50 (µg/mL), pseudovirus neutralization [34]: > 50 µg/mL; IC50, pseudovirus neutralization [35]: > 50 µg/mL
PGV04 (antibody)	–	–	–	–	–	–	–	–	–	–	–	–	–	–	–	–	–	–	0.879	–	IC50 (µg/mL), pseudovirus neutralization [19]: 1.29 µg/mL; IC50 (µg/mL), pseudovirus neutralization [36]: 1.61 µg/mL; IC50 (µg/mL), pseudovirus neutralization [21]: 0.125 µg/mL
b12 (antibody)	1.93	> 50	0.07	47	> 50	3.64	13.6	2.82	> 50	> 50	> 50	> 50	> 50	> 50	21.4	7.64	> 50	–	–	–	–
